Test results: article PMC5730568

Legend:
[1] = system: GST-MBNL1-His6 (truncated 41-kDa isoform); test: filter binding; details: MBNL1 filter binding: 250 mM NaCl, 15 mM KCl, 50 mM Tris-HCl pH 8.0, 0.05% Tween-20, 1 mM MgCl2, 37 C, 15 min, SRSF1 EMSA: 100 mM NaCl, 20 mM HEPES-Na pH 8.0 …
SRSF1-His6 (23 kDa) = SRSF1-His6 (23 kDa) (UniProt Q07955); test: EMSA; details: MBNL1 filter binding: 250 mM NaCl, 15 mM KCl, 50 mM Tris-HCl pH 8.0, 0.05% Tween-20, 1 mM MgCl2, 37 C, 15 min, SRSF1 EMSA: 100 mM NaCl, 20 mM HEPES-Na pH 8.0 …
Sequence of UniProt Q07955 (Q07955 1-186): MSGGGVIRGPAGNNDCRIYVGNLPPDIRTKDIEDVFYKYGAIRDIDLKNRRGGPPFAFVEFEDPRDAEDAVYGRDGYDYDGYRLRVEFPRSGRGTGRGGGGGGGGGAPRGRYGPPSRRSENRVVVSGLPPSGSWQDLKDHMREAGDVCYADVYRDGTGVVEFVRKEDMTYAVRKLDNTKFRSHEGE

Substance: Atp2a1-RNA
- binding signal (fold suppression) ([1]; 0.5 uM 2'OMe AON (S4)): 8
- binding signal (fold suppression) ([1]; 0.5 uM 2'OMe-PS AON (S5)): 8
- binding signal (fold suppression) ([1]; 20 uM DNA AON (S120)): 8

Substance: GGGUUGGUACUAAGAAGUGCCUUUCCUGACGUCUCUGCUGCUUGGAACCGCUUCUAGAGCAGCCUCUGCUUUUGCCUUGCUUGCUGCCAGCUAGACUGACGACAGCACAUCCGCCCUCCACCUCUAGCCCAGACACCCCAUUUCUACUUCUAAUCAGGAGAAAAGCUCUGAGUAUCUGCCAUUGCCCUAGG [Mbnl1-RNA]
- Kd (SRSF1-His6 (23 kDa)): 13 nM

Substance: Nfix-RNA
- Kd (SRSF1-His6 (23 kDa); no AON): 60 nM

Substance: Mbnl1-RNA
- Kd (SRSF1-His6 (23 kDa); no AON): 13 nM
